EC50 data for two molecules are collected here from paper PMC11154707, “Polymer-based antibody mimetics (iBodies) target human PD-L1 and function as a potent immune checkpoint blocker” (The Journal of Biological Chemistry, 2024).

The target in experiment [1] is T1, recombinant human PD-L1 extracellular domain (residues 19–239), His-tagged (human, UniProt Q9NZQ7 19-239).
T1 construct: programmed death-ligand 1 (PD-L1/CD274/B7-H1), human, extracellular domain residues 19-239, subcloned from pCMV3-full-length human PD-L1 into pTT28; probably removed on secretion (surmise); also called rhPD-L1; recombinant extracellular hPD-L1; source: HEK293-6E, transiently transfected, secreted, purified (Ni-NTA Agarose, dialysis); not shown: His8, C-terminal, kept
T1 sequence (Q9NZQ7 19-239): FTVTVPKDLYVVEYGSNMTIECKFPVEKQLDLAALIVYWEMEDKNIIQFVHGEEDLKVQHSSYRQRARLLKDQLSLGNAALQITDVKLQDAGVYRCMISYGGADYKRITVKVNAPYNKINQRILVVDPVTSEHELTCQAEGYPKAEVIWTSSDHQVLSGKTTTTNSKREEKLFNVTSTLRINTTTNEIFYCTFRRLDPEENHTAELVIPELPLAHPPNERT
Description: ELISA; 100 ng/well rhPD-L1 coated directly on the plate, casein block; dilution series of ATTO488-WL12 in TBS with 0.1% Tween-20, 1 h RT; read by ATTO488 fluorescence intensity; EC50 by 4-parameter logistic fit. As to conditions: both partners purified. (In general: ELISA stands for enzyme-linked immunosorbent assay.)

The target of experiment [2] is T2, human PD-L1, membrane-bound, on hPD-L1-transfected CHO cells (human, UniProt Q9NZQ7 19-290).
T2 construct: The catalogue suffix -CH may mean a C-terminal His tag (surmise); also called CHO PD-L1; source: CHO cells, stably transfected (pCMV3-full-length human PD-L1, hygromycin selection), on cells
T2 sequence (Q9NZQ7 19-290): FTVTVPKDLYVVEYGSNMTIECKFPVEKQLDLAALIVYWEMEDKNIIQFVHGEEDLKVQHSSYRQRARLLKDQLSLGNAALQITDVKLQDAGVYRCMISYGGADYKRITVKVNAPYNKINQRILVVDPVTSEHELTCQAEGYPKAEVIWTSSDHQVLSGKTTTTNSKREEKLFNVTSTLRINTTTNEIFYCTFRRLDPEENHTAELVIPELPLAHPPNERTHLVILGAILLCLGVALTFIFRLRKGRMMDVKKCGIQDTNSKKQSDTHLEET
Kind of experiment: flow cytometry on cells; dilution series on hPD-L1-transfected and wild-type CHO cells in PBS, 30 min at 4 °C; ATTO488 fluorescence; EC50 from MFI by 4-parameter logistic fit. As to conditions: one partner purified.

The target of experiment [3] is T1, recombinant human PD-L1 extracellular …. Kind of experiment: ELISA; 100 ng/well rhPD-L1 coated directly on the plate (TBS, 1 h RT), casein block; dilution series of biotinylated binder in TBS with 0.1% Tween-20, 1 h RT; neutravidin-HRP, chemiluminescence; EC50 by 4-parameter logistic fit. As to conditions: both partners purified.

As a reminder, the EC50 is the concentration giving half of the maximal effect.

B1: ATTO488-WL12 (peptide)
chain: YANPHLPWSWXXXCG
modifications: ClAc on the N-terminus (peptide cyclised, macrocyclic); MeAla at 2; Hyp at 7; Trp(Me) at 10; MeNle at 11 and 12; Orn at 13; C-terminal amide; ATTO488 fluorophore (site not told in the text shown)
For the molecule B1, the EC50 was determined as 5.3 nM in experiment [1] and 270 nM in experiment [2].

B2: iBody 1 (HPMA copolymer carrying WL12, ATTO488 and biotin) (other)
chain: YANPHLPWSWXXXCG
modifications: ClAc on the N-terminus (peptide cyclised, macrocyclic); MeAla at 2; Hyp at 7; Trp(Me) at 10; MeNle at 11 and 12; Orn at 13; C-terminal amide; amino group of the peptide bound to the HPMA copolymer
As to B2, the results for the 50% effective concentration (EC50) in experiment [3] and in experiment [2] were 0.29 nM and 6.6 nM, respectively.
